Data set [1] concerns the target Pcdhα7 EC1-5 (Mus musculus) (UniProt Q91Y13). Particulars: cited from earlier work.
The data set “AUC” concerns the molecule itself. Nature of the data set: AUC.

As to Pcdhα7 EC1-5 (from UniProt Q91Y13), the Kd in data set [1] is 2.91 µM.

B1: Pcdh β6 EC1–4 (mouse clustered protocadherin β6, extracellular cadherin domains 1–4) (domain or fragment)
chain: EAIRYSIPEETESGYLVAHLAKDLGFRVGELATRRARIHHRGNKELLQLDVETGNLLLKEKPDREALCGATEPCVLHFQIILENPVQFFQTELQLTDINDHSPEFPDTEMLLKIQESTQPATVFLLKAAQDSDIGSNAVQNYTVSPNLHFHVVTLSRSDGRKYPELVLDRALDREEQPELTLILTALDGGAPPKSGTTTVRIEVVDINDNAPEFVQSLYSVEVPENSPLDALVVTVSARDLDAGIHGNVAYSLFQGGGGPQPFVIDEITGEIRLKGALDFEATSYYTMEIVATDSGGLSGKCTVAIQVLDVNDNAPKLTISSLTSSIPENAPEAVVAVFSVSDPDSGDNGRMVCSIQNELPFLLKPTFENYYTLAAEGPLDREIREEYNITIIVSDLGTPRLTTQHTITVQVVDIND
modifications: N- and O-linked glycans; O-mannose at positions 194 and 196 (α7 numbering) of EC2
Take B1: in “AUC”, binding was characterised by a dissociation constant (Kd) of 16.3 ± 2.08 µM and the “stoichiometry N” value is 2.

B2: Pcdh β8 EC1–4 (mouse clustered protocadherin β8, extracellular cadherin domains 1–4) (domain or fragment)
chain: EAISYSMPEETESGYLVANLAQDLGLRVGELTTRGARIHHNGNKELLQLDAERGNLLLKEKPDREALCGATEPCVLHFQIILENPVQFFQTDLQFTDINDHFPEFPDTEMLLKIQEIAQPGTVFPLKAAQDPDIGSNAVQNYTVSPNLHFHVVTLSRSDDRKYPELVLDRALDREEQPELTLILTALDGGAPPKSGTTTVRIEVVDINDNAPQFLQSLYAVEVPENSPLNALVVTVSARDLDAGIHGNVAYSLFQGGGGPQPFVIDEITGEIRLKGALDFEATSYYTMEIVATDSGGLSGKCTVAIQVLDVNDNAPKLTISSLTSSIPENAPEAVVAVFSVSDPDSGDNGRMVCSIQNGLPFLLKPTFKNFYTLVTERPLDRESNAEYNITITVSDLGTPRLTTQHTITVQVSDINDN
modifications: N- and O-linked glycans; O-mannose at positions 194 and 196 (α7 numbering) of EC2 and on T199
As to B2, in the data set “AUC”, the Kd came to 24 ± 0.43 µM and the “stoichiometry N” value was determined as 2.

B3: Pcdh α7 EC1–5 (mouse clustered protocadherin α7, extracellular cadherin domains 1–5) (domain or fragment)
chain: QLHYSVPEEAKHGTFVGRIAQDLGLELTELVPRLFRVASKDRGDLLEVNLQNGILFVNSRIDREELCGRSAECSIHLEVIVDRPLQVFHVEVEVKDINDNPPMFPATQKALFILESRLLDSRFPLEGASDADVGSNALLTYRLSTNEHFSLDVPPNHEQVKPLGLVLRKPLDREEAAEIRLLLTATDGGKPELTGTVQLLITVLDVNDNAPVFDRSLYTVKLPENVPNGTLVIKVNASDLDEGVNGDVMYSFSSDVSSDIKSKFHMDTVSGEITVIGIIDFEESKAYKIPLEARDKGFPQLPGHCTILVEVVDANDNAPQLTVSSLSLPVSEDSQPGRVVTLISVFDRDSGANGQVTCSLTPHIPFKLVSTFKNYYSLVLDSALDRETIANYDVIVTARDGGSPSLWATASVSVEVADVNDNAPLFAQPEYTVFVKENNPPGAHIFTVSAMDADAQENALVSYSLVERRVGERLLSSYVSVHAESGKVFALQPLDHEELELLQFQVSARDAGVPALGSNVTLQVFVLDEND
modifications: N- and O-linked glycans; O-mannose at positions 194 and 196 (EC2), T409 (EC4) and S449 (EC5)
Turning to B3, in the data set “AUC”, the “stoichiometry N” value turned out to be 2.

B4: Pcdh α4 EC1–4 (mouse clustered protocadherin α4, extracellular cadherin domains 1–4) (domain or fragment)
chain: QIHYSIPEEAKHGTFVGRIAQDLGLELTELVPRLFRVASKDRGDLLEVNLQNGILFVNSRIDREELCGRSAECSIHLEVIVDRPLQVFHVEVEVRDINDNPPRFPTTQKNLFIAESRPLDTWFPLEGASDADIGINAVLTYRLSPNDYFSLEKPSNDERVKGLGLVLRKSLDREETPEIILVLTVTDGGKPELTGSVQLLITVLDANDNAPVFDRSLYTVKLPENVPNGTLVVKVNASDLDEGVNGDIMYSFSTDISPNVKYKFHIDPVSGEIIVKGYIDFEECKSYEILIEGIDKGQLPLSGHCKVIVQVEDINDNVPELEFKSLSLPIRENSPVGTVIALISVSDRDTGVNGQVTCSLTSHVPFKLVSTFKNYYSLVLDSALDRETTADYKVVVTARDGGSPSLWATASVSVEVADVND
modifications: N- and O-linked glycans; O-mannose on T409, S411 and S413 (EC4)
For B4, in “AUC”, the Kd turned out to be 0.037 ± 0.0082 µM and the “stoichiometry N” value is 2.

The values above are taken from paper PMC4873334 (Neuron, 2016).
